From patent publication US20190300610A1 (published 2019)
Values belong to the binder of their own block, whether it stands above or below them.

Experiments:
His-tagged human VISTA = target: T1, His-tagged human VISTA (human, UniProt Q9H7M9 33-194); test: BLI (Octet QK384), His-tagged VISTA captured on anti-Penta-HIS tips, antibody as analyte, global one site fit
T1 construct: also called human VISTA-His recombinant protein; VISTA/human His-tagged fusion protein (Sinobiological Inc); not shown: His tag

[1] = target: T2, His-tagged cynomolgus macaque VISTA (cynomolgus macaque, UniProt A0A7N9IB00 33-194); test: as above
T2 construct: also called cynomolgus monkey VISTA; not shown: His tag

Histidine-tagged mFcγRIV = target: T3, Histidine-tagged mFcγRIV (mouse, UniProt A0A0B4J1G0 21-203); test: BLI (Octet QK384), His-tagged receptor on anti-Penta-HIS biosensor, antibody as analyte, pH 7.2
T3 construct: also called mouse FcγRIV; mFcγRIV (50036-M08H, Sino Biological)
T3 sequence: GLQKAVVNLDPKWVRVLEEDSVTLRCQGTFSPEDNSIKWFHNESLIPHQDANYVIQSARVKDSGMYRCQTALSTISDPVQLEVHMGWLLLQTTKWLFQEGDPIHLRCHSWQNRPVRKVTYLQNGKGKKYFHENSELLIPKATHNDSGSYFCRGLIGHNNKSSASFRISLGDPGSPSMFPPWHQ

[2] = target: T4, Histidine-tagged mFcγRIII (mouse, UniProt P08508 31-215); test: as above
T4 construct: also called mouse FcγRIII; mFcγRIII (50326-M08H, Sino Biological); not shown: histidine tag
T4 sequence (looked up): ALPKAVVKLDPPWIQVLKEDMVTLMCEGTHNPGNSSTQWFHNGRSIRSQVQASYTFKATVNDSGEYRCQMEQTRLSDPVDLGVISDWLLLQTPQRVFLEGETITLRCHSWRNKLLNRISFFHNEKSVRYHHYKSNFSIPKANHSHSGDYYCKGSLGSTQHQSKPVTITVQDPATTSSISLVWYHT

[3] = target: T5, Histidine-tagged mFcγRIIb (mouse, UniProt P08101 30-207); test: as above
T5 construct: also called mouse FcγRIIb; mFcγRIIb (50030-M08H, Sino Biological); not shown: histidine tag
T5 sequence (looked up): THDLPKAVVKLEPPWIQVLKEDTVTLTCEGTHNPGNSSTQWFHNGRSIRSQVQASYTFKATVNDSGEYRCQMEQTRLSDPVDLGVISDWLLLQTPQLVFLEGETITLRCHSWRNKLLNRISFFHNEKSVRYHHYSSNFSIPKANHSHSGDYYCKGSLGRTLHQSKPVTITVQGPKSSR

[4] = target: T6, Human VISTA expressed on cells (human, UniProt Q9H7M9 33-311); test: flow cytometry, HEK293T cells transfected with human VISTA vs wildtype, 20 µg/ml antibody (FIGS. 1C, 2, 24)
T6 construct: also called HEK293 VISTA O/E; HEK293T cells transfected with vector encoding human VISTA
Procedure: The cells were washed thrice with FACS buffer (PBS with 5 mM EDTA and 0.5% BSA) and resuspended in FITC-conjugated anti-FC antibody (Invitrogen, USA) for 40 min at 2-8° C. Cells were washed again and resuspended in 200 μL of FACS flow buffer (PBS with 5 mM EDTA) for flow cytometric analysis using MACSQuant 10 (Miltenyi Biotec, Germany). After acquisition, all raw data were analyzed using Flowlogic software. Cells were gated using forward and side scatter profile and Median of Fluorescence Intensity (MFI) value was determined for native and overexpressing cell populations.

- Kd (His-tagged human VISTA): < 1 µM
- Kd [1]: < 1 µM
B1: anti-VISTA clone 4M2-C12 IgG1 (antibody)
heavy: not shown
light: DIVITQTPAILSTSPGEKVTMTCRASSSVGYIHWYQQKPGSSPKPWIYATSNLASGVPARFSGSGSGTSNSLTITRVEAEDAATYYCQQWSSYPPITFGGGTKLEVKRTVAAPSVFIFPPSDEQLKSGTASVVCLLNNFYPREAKVQWKVDNALQSGNSQESVTEQDSKDSTYSLSSTLTLSKADYEKHKVYACEVTHQGLSSPVTKSFNRGEC
notes: Human-mouse chimeric IgG1/kappa; also called V4; clone V4

- binding result (Histidine-tagged mFcγRIV): binds
- binding result [2]: binds
- binding result [3]: binds
B2: 4M2-C12 mIgG2a (antibody)
heavy: EVKLVESGPGLVKPSQSLSLTCTVTGYSITSDYAWNWIRQFPGNKLEWMGYITYSGNISYNPSLRSRISITRDTSKNQFFLQLNSVTPEDTATYSCARSLYYPWYFDVWGAGTTVTVSSAKTTAPSVYPLAPVCGDTTGSSVTLGCLVKGYFPEPVTLTWNSGSLSSGVHTFPAVLQSDLYTLSSSVTVTSSTWPSQSITCNVAHPASSTKVDKKIEPRGPTIKPCPPCKCPAPNLLGGPSVFIFPPKIKDVLMISLSPIVTCVVVDVSEDDPDVQISWFVNNVEVHTAQTQTHREDYNSTLRVVSALPIQHQDWMSGKEFKCKVNNKDLPAPIERTISKPKGSVRAPQVYVLPPPEEEMTKKQVTLTCMVTDFMPEDIYVEWTNNGKTELNYKNTEPVLDSDGSYFMYSKLRVEKKNWVERNSYSCSVVHEGLHNHHTTKSFSRTPGK
light: DIVITQTPAILSTSPGEKVTMTCRASSSVGYIHWYQQKPGSSPKPWIYATSNLASGVPARFSGSGSGTSNSLTITRVEAEDAATYYCQQWSSYPPITFGGGTKLEVKRADAAPTVSIFPPSSEQLTSGGASVVCFLNNFYPKDINVKWKIDGSERQNGVLNSWTDQDSKDSTYSMSSTLTLTKDEYERHNSYTCEATHKTSTSPIVKSFNRNEC
notes: Mouse IgG2a format, produced in CHO cells; also called 4M2-C12 IgG2a

- binding result [4]: binds
B3: anti-VISTA clone 9M2-C12 IgG1 (antibody, V domains shown)
VH: QVQLQQSGAELVKPGASVRLSCKASGYTFTSYWMHWVRQRPGLGLEWIGEIDPSDSYTNCNQRFKGKATLTVDKSSSTAYTQLSSLTSEDSAVYYCARWAYGPYAMDYWGQGTSVTVSS
VL: DIVMTQTPLSLPVSLGDQASISCRSSQSLVHSNGNTYLHWYLQKPGQSPKLLIYKVSNRFSGVPDRFSGSGSGTDFTLKISRVEAEDLGVYFCSQSTHVPWTFGGGTKLEIKR
